For eight substances, Remaining activity [%] results are on record in US20210277053A1.

Common to all, as to assay: ELISA on immobilised human gamma globulin, anti-6-His detection; antibody-binding activity after 0.5 M NaOH, 25 C, 15 h divided by activity without alkali treatment
A general note: An ELISA detects its analyte on a solid surface through an enzyme-linked reagent.

The target of test [1] is gamma globulin (manufactured by The Chemo-Sero-Therapeutic Research Institute), a human antibody (human).
Test [2] shares this target. The source holds these as a separate data set.
The target is the same in test [3]. The source holds these as a separate data set.
For test [4] the target is unchanged. The source holds these as a separate data set.

Like-named read-outs stand apart in the source and are kept apart here.

Turning to “SpA5d (SpA4a with Asn11Lys) (designed binder)”, the values for the Remaining activity [%] in test [1], in test [2] and in test [3] were 88%, 86% and 89%, respectively.

As for “SpA5f (SpA5d with Lys(Glu)58Gly) (designed binder)”, in test [1], the Remaining activity [%] came to 90%.

Turning to “SpA7a (SpA6a with Val40Ala) (designed binder)”, the Remaining activity [%] in test [3] was determined as 89%.

“SpA6b (SpA6a with Lys(Glu)58Asp) (designed binder)” registered a Remaining activity [%] in test [3] of 87%.

Regarding “SpA6c (SpA6a with Lys(Glu)58Val) (designed binder)”, the Remaining activity [%] in test [3] turned out to be 87%.

“SpA6a (SpA5d with Glu15Ala) (designed binder)”: the Remaining activity [%] in test [4] was 83%; in test [1], 91%; in test [3], 86%.

“SpA5e (SpA4a with Asn11Tyr) (designed binder)” showed a Remaining activity [%] in test [3] of 85%.

In test [4], “SpA7b (SpA6a with Asn3Ile) (designed binder)” yielded a Remaining activity [%] of 88%.
